We go through 1 substance from PMC8971466.

A short description of this series: SEC; SE-HPLC, TSK-gel SuperSW3000; 0.1 M phosphate, 0.1 M potassium sulfate pH 6.7; scFv at 0.1 mg/mL, 25 °C, 0.3 mL/min; monomer and dimer peaks told by molecular weight standards, percentages from peak areas. Background: Size exclusion chromatography separates by hydrodynamic size, large species first.

As to “L1, anti-VEGF scFv derived from bevacizumab with non-repetitive linker”, the Monomer/dimer ratio (monomer %) was 95.7%.
